Measured values as given in the supplement of paper PMC10065799, “High-throughput profiling of sequence recognition by tyrosine kinases and SH2 domains using bacterial peptide display” (eLife, 2023).

Experiments:
[1] = tested on: AncSZ; experiment: phosphorylation enrichment, bacterial display (enrichment ratio); higher = better substrate or ligand; peptides without Tyr show the background
[2] = biological target: EPHB1 (UniProt P54762); experiment: as above
[3] = biological target: EPHB2 (UniProt P29323); experiment: as above
EPHB2, sequence (P29323 whole entry, looked up): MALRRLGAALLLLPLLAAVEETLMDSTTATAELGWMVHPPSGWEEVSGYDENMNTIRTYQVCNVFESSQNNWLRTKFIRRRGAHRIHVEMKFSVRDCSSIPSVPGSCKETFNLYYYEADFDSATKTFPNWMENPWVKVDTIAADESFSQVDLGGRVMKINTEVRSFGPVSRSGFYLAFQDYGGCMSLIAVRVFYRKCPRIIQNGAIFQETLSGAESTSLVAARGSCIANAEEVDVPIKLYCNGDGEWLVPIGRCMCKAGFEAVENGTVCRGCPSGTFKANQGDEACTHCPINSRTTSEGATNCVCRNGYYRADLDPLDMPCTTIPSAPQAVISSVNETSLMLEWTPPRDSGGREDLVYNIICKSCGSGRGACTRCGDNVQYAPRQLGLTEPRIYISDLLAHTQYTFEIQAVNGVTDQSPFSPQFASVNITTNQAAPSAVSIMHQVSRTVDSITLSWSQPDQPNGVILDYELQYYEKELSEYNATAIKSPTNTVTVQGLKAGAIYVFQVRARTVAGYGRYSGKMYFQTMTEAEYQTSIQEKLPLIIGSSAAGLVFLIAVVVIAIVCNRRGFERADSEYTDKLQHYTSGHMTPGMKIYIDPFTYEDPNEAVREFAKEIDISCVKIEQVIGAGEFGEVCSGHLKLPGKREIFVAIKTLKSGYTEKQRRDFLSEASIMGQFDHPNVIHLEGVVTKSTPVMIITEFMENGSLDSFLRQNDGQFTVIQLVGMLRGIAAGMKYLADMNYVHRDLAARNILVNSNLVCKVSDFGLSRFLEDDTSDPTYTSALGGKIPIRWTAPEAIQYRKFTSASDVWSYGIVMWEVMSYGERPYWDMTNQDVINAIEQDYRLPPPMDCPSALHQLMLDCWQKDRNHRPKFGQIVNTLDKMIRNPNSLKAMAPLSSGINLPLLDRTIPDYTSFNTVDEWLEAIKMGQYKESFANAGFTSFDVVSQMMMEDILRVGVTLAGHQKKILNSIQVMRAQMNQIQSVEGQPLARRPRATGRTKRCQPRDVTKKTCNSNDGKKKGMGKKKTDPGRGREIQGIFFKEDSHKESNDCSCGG

[4] = biological target: FGFR1 (UniProt P11362); experiment: as above
FGFR1, sequence (P11362 whole entry, looked up): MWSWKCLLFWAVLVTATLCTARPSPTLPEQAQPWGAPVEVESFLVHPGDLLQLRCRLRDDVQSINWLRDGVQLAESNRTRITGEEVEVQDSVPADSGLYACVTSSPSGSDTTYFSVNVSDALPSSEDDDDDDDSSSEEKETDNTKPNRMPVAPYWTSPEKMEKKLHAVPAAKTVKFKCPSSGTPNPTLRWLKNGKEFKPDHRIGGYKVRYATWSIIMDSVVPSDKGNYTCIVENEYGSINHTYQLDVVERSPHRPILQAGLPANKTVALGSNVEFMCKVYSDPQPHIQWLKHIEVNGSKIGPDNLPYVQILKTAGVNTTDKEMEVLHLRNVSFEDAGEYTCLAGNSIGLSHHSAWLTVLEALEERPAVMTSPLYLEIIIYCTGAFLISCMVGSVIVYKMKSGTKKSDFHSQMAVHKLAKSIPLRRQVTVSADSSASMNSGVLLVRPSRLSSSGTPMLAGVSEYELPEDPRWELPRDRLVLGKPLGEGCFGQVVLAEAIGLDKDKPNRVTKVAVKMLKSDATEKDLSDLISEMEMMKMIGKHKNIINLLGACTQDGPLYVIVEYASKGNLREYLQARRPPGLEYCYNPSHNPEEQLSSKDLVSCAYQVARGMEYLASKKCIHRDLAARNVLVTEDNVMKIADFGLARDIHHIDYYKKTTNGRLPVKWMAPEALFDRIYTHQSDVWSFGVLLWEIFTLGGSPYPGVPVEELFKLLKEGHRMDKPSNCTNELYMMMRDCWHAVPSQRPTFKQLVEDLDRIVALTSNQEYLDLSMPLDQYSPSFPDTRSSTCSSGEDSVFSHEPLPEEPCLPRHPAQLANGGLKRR

[5] = biological target: FGFR3 (UniProt P22607); experiment: as above
[6] = tested on: Fer (mouse); experiment: as above
[7] = biological target: Fes (UniProt P07332); experiment: as above
Fes, sequence (P07332 whole entry, looked up): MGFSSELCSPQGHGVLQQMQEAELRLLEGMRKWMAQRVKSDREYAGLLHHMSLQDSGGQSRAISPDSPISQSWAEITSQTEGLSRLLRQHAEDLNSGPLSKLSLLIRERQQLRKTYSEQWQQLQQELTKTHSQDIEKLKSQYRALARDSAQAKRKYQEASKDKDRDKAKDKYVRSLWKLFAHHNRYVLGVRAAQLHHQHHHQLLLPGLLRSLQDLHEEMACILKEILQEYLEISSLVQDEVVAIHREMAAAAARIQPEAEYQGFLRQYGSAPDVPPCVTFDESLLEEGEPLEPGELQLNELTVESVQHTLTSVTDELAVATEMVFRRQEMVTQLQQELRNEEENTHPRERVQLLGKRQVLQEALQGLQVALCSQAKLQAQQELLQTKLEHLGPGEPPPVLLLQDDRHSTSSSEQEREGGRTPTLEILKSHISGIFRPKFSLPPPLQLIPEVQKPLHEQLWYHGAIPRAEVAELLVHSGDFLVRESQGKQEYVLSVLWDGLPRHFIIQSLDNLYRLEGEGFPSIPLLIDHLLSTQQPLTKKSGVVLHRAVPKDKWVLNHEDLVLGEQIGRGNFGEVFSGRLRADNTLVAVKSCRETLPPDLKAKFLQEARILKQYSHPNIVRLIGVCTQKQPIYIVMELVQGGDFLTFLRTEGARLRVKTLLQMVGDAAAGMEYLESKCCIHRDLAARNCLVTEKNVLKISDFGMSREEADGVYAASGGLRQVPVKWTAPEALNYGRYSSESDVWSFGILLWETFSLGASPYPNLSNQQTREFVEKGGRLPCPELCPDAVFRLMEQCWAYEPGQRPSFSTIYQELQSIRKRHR

[8] = biological target: Fyn (UniProt P06241); experiment: as above
Fyn, sequence (P06241 whole entry, looked up): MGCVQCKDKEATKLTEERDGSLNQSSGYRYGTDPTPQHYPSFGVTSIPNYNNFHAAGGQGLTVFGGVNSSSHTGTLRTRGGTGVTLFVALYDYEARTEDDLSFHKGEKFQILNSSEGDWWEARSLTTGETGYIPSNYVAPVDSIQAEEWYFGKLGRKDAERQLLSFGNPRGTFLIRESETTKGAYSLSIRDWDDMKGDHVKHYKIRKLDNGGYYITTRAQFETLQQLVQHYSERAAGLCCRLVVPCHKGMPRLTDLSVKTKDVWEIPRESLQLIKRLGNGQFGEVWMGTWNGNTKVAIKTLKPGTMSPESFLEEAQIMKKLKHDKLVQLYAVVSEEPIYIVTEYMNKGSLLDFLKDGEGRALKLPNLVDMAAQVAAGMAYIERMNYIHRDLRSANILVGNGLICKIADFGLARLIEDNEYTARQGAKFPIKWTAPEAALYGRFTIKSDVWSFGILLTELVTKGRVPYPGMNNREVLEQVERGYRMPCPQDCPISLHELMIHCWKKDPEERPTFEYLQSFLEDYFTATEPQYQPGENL

[9] = biological target: Hck (UniProt P08631); experiment: as above
Hck, sequence (P08631 whole entry, looked up): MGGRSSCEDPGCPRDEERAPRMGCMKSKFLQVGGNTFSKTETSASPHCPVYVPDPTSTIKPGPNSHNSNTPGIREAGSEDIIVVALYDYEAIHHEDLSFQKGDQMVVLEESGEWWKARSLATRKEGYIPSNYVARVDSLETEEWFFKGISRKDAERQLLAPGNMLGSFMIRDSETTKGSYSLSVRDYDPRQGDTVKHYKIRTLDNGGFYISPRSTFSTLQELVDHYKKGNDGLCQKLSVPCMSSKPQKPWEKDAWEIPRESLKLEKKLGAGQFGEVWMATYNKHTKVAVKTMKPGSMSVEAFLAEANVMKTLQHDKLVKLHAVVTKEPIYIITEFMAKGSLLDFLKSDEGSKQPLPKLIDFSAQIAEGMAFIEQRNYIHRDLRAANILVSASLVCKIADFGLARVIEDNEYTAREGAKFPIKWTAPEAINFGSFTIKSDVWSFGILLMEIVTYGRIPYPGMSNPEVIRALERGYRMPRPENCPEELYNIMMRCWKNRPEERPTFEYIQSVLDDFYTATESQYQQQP

[10] = biological target: Jak2 (UniProt O60674); experiment: as above
Jak2, sequence (O60674 whole entry, looked up): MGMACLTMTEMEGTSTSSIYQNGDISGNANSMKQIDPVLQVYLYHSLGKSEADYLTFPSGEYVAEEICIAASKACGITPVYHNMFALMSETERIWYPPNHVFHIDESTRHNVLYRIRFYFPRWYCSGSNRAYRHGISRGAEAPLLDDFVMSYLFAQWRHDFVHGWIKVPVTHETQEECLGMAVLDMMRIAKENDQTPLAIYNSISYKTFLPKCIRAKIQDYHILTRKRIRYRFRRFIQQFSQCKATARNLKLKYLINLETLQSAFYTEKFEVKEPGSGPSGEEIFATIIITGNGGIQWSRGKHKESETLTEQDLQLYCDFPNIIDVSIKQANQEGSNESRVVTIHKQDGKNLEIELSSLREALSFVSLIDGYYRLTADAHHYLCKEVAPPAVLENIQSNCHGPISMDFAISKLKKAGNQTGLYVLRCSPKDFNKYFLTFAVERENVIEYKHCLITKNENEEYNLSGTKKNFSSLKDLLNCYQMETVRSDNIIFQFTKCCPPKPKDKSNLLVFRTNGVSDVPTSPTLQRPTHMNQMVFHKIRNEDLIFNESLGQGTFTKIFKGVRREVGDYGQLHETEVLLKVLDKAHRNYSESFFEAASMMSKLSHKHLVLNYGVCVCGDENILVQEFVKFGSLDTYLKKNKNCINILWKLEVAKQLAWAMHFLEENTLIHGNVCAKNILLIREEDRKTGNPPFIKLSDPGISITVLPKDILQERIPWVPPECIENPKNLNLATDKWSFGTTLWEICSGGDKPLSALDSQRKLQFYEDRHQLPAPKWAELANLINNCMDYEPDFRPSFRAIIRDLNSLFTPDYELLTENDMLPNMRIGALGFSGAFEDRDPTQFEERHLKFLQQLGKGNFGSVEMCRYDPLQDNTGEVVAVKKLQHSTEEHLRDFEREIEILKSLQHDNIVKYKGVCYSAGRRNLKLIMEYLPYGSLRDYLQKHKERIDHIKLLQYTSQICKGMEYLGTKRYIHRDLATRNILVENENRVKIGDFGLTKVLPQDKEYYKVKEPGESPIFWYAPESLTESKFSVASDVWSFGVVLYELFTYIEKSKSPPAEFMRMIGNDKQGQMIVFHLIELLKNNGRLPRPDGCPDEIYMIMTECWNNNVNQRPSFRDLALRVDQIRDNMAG

[11] = biological target: MERTK (UniProt Q12866); experiment: as above
[12] = tested on: c-Abl (mouse); experiment: as above
[13] = tested on: c-Src; experiment: as above
[14] = biological target: Grb2 SH2 (UniProt P62993); experiment: SH2 binding enrichment of the phosphorylated peptide, bacterial display (enrichment ratio); higher = better substrate or ligand; peptides without Tyr show the background
[15] = biological target: SHP2-C SH2; experiment: as above
[16] = biological target: c-Src SH2; experiment: as above
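Wherever SH2 binding enrichment of the phosphorylated peptide, bacterial display is given: peptide library displayed on the E. coli surface as eCPX fusions, selected cells deep-sequenced, score is each peptide's frequency after selection divided by its frequency in the input.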
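Wherever phosphorylation enrichment, bacterial display is given: 11-residue human phosphosite peptides and single-mutation variants displayed on the E. coli surface, counted by deep sequencing, each peptide's frequency after selection divided by its frequency in the unselected input library; frequency after pTyr selection over input frequency; kinase dosed for 20-30% of maximal phosphorylation in three min.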

SH2 binding enrichment [14]	SH2 binding enrichment [15]	SH2 binding enrichment [16]	Sequence	phosphorylation enrichment [1]	phosphorylation enrichment [2]	phosphorylation enrichment [3]	phosphorylation enrichment [4]	phosphorylation enrichment [5]	phosphorylation enrichment [6]	phosphorylation enrichment [7]	phosphorylation enrichment [8]	phosphorylation enrichment [9]	phosphorylation enrichment [10]	phosphorylation enrichment [11]	phosphorylation enrichment [12]	phosphorylation enrichment [13]
1.3	1.19	1.08	KHGGNYVPAPK [OSCP1_Y237]	0.7	0.407	0.304	0.512	0.604	0.456	1.05	0.359	0.529	0.692	0.439	0.822	0.491
0.597	0.906	0.657	KIDAKYKKKIK [WDR19_Y1230_E1235K]	0.553	0.38	0.319	0.376	0.834	0.447	0.809	0.305	0.398	0.755	0.368	0.8	0.484
0.74	0.611	0.574	KIIATYRLCSE [DNAH3_Y1586_V1583I]	0.887	0.596	0.51	0.431	0.678	0.477	0.951	0.407	0.462	0.808	0.354	0.693	0.421
0.745	0.848	0.537	KIVYVYVKKRS [DNAI2_Y7_E2K]	1.13	0.577	0.538	0.531	0.654	0.514	1.17	0.515	0.587	1.17	0.507	0.758	0.433
1.34	1.25	0.982	KKFFSYAWPFF [BRDT_Y291_H288Y_YF]	1.07	0.505	0.545	0.515	0.716	0.488	0.991	0.555	0.497	0.92	1.58	0.611	0.497
1.58	0.831	0.878	KKFVPYFDLFM [IPO5_Y530_E525K_YF]	1.29	0.722	0.707	0.79	0.898	0.53	1.35	0.479	0.571	1.14	0.645	0.773	0.526
2.07	1.84	1.79	KKHIPYRQHKS [CSNK1G2_Y206_E208Q]	2.09	2.12	1.36	1.28	3.67	2.37	3.45	1.08	1.56	4.52	1.07	3.26	1.34
0.775	0.576	1.28	KKMEVYQSIAD [MYBPC3_Y548_L545M]	0.927	0.745	0.627	0.719	0.681	0.508	1.04	0.943	1.47	1.04	0.451	0.764	0.91
0.801	0.664	0.478	KLFFIYTSGTT [SLC27A4_Y245_YF]	1.16	0.633	0.646	0.531	0.813	0.529	1.19	0.435	0.424	1.1	0.398	0.967	0.345
0.698	0.649	0.413	KLKRSYSSPDI [USP8_Y717]	0.552	0.376	0.688	0.365	0.461	0.38	0.613	0.322	0.379	0.524	0.43	0.412	0.396
1.12	2.42	1.21	KLLRLYAVVTR [LYN_Y306_V303L]	0.997	0.982	0.594	0.409	0.644	0.51	1.04	0.451	0.468	1.05	0.581	0.918	0.544
0.722	0.751	0.488	KLNNEYLELNF [MME_Y497_YF]	1.16	0.844	0.715	4.77	3.38	0.552	1.04	0.757	1.06	1.1	0.503	0.778	0.843
0.873	0.594	0.554	KLQKKYGPISS [CYP17A1_Y60_Y64S]	0.381	0.32	0.317	0.338	0.493	0.289	0.553	0.343	0.375	0.364	0.378	0.399	0.364
1.71	1.6	1.22	KMKGDYFRFLA [YWHAG_Y130_YF]	0.722	0.804	0.509	5.05	3.83	0.282	0.689	1.01	0.543	4.54	0.632	0.806	2.11
0.812	0.773	0.612	KNITEYCRHLI [RECQL_Y492_D495H]	0.726	0.51	0.436	0.526	0.533	0.533	0.855	0.433	0.455	0.88	0.43	0.654	0.477
0.944	0.834	0.648	KNKLNYTLPQD [NRAP_Y523]	0.584	0.409	0.436	0.419	0.451	0.39	0.523	0.372	0.406	0.567	0.347	0.468	0.35
0.944	0.715	0.503	KPAFSYTSSST [SIM1_Y356]	1.01	0.467	0.533	0.415	0.475	0.447	0.635	0.578	0.446	0.528	0.417	0.606	0.484
